{
  "source": "paper PMC5008402",
  "proteins": {"B1": {"name": "TAK1 binding protein 3 (TAB3): S408A (protein)", "parent chain": "MAQSSPQLDIQVLHDLRQRFPEIPEGVVSQCMLQNNNNLEACCRALSQESSKYLYMEYHSPDDNRMNRNRLLHINLGIHSPSSYHPGDGAQLNGGRTLVHSSSDGHIDPQHAAGKQLICLVQEPHSAPAVVAATPNYNPFFMNEQNRSAATPPSQPPQQPSSMQTGMNPSAMQGPSPPPPPPSYMHIPRYSTNPITVTVSQNLPSGQTVPRALQILPQIPSNLYGSPGSIYIRQTSQSSSGRQTPQSTPWQSSPQGPVPHYSQRPLPVYPHQQNYQPSQYSPKQQQIPQSAYHSPPPSQCPSPFSSPQHQVQPSQLGHIFMPPSPSTTPPHPYQQGPPSYQKQGSHSVAYLPYTASSLSKGSMKKIEITVEPSQRPGTAINRSPSPISNQPSPRNQHSLYTATTPPSSSPSRGISSQPKPPFSVNPVYITYTQPTGPSCTPSPSPRVIPNPTTVFKITVGRATTENLLNLVDQEERSAAPEPIQPISVIPGSGGEKGSHKYQRSSSSGSDDYAYTQALLLHQRARMERLAKQLKLEKEELERLKSEVNGMEHDLMQRRLRRVSCTTAIPTPEEMTRLRSMNRQLQINVDCTLKEVDLLQSRGNFDPKAMNNFYDNIEPGPVVPPKPSKKDSSDPCTIERKARRISVTSKVQADIHDTQAAAADEHRTGSTQSPRTQPRDEDYEGAPWNCDSCTFLNHPALNRCEQCEMPRYT"}},
  "key": {"[1]": {"experiment": "phospho-specific blot", "settings": "glycan lost; control: WT TAB3"}, "[2]": {"experiment": "Flag IP, pThr404 TAB3 blot", "settings": "glycan lost; control: WT TAB3, IL-1β treated"}},
  "data": [
    {"protein": "B1", "values": [
      {"measurement": "other: TAB3 S60 and S506 phosphorylation", "setting": "[1]", "value": "no change"},
      {"measurement": "other: TAB3 Thr404 phosphorylation", "setting": "[2]", "value": "decreases"}
    ]}
  ]
}
